{"source": "patent US9127075B2", "about": "“Analgesic active peptide VGG, preparation and use thereof” (priority 2010, dated 2015)", "molecules": {"B1": {"name": "analgesic active peptide VGG (protein, listed as Mesobuthus martensi)", "chain": "VKDGYIADDRNCPYFCGRNAYCDGECKKNRAESGYCQWASKYGNACWCYKLPDDARIMKPGRCNGG"}}, "key": {"[1]": {"tested_on": "mouse twisting model induced by acetic acid", "assay_type": "in vivo", "description": "1. In Vivo Analgesic Activity in Mouse Twisting Model Induced by Acetic Acid.\nIn mouse twisting model: The glacial acetic acid as the chemical irritant is injected into the mouse stomach, which causes a deep and large area and lasting pain stimulus for animal which has a “twist body” reaction, such as abdominal cove, torso and legs spread out, hip high up.\nEqual numbers of male and female mice, whose weight were about […], were divided into groups by random. Each group consisted of eight mice. 0.2 ml/20 g of 0.6% (v/v) of acetic acid, which caused visceral pain, was intraperitoneally injected after the test sample was injected into the stomach of mouse for 20 minutes. The writhing times of the mouse were recorded for 10 min after the acetic acid was injected for 5 min. […] The inhibition of writhing response inhibition for each test group was calculated by the following formula: […]"}, "[2]": {"tested_on": "mouse hot plate analgesic method", "assay": "In vivo assay of analgesic activity, hot plate method of mice", "details": "0.1 mg/kg i.v. via tail, hot plate 55±0.5° C.; for B, average response time after medicine taken: before 21 ± 4.2 s", "description": "2. In Vivo Assay of Analgesic Activity—Hot Plate Method of Mice\nThis example is used to verify the in vivo biological activity for the analgesic activity of analgesic active peptide VGG with […].\nThe mouse hot plate analgesic method: the female mice with weight from 18 g to 22 g were put a hot plate at temperature of 55±0.5° C. which was maintained by a water bath. The licking times were recorded plate as the pain threshold of mouse after it was put onto the hot plate. The pain threshold between 10-30 seconds was considered to be qualified for experiments. The qualified mice were divided into groups by random. The normal pain reaction time of mouse was determined for two times. The mean of the pain threshold (B) was calculated before medicine was taken. The analgesic active peptide VGG (dosage of 0.1 mg/kg (test sample/mouse weight) was intravenously injected via tail. The normal saline was used as control group. The pain reaction time was recorded as one at 15, 30, 45, 60 […] after the test sample was taken. The mouse was immediately taken out if it had no pain response on the hot plate in 60 seconds. The 60 seconds as a calculation unit, the pain threshold increasing percentage was calculated by the following formula: A=(B−C)/C×100% • A—Pain threshold increasing percentage • B—Average response time after medicine taken • C—Average response time before medicine taken"}}, "note": "Where two headings read alike, the source gives them in different places.", "data": [{"molecule": "B1", "values": [{"measurement": "inhibition of the animal writhing", "setting": "[1]; purest analgesic active peptide VGG, dosage 0.1 mg/kg", "value": "≥ 60", "unit": "%"}, {"measurement": "inhibition of the animal writhing", "setting": "[1]; various purity, isolated from scorpion venom or scorpion tails or scorpion body, dosage 0.1 mg/kg-1.0 mg/kg", "value": "≥ 50", "unit": "%"}, {"measurement": "A, pain threshold increasing percentage", "setting": "[2]; 10 min", "value": 128, "unit": "%"}, {"measurement": "B, average response time after medicine taken", "setting": "[2]; 10 min", "value": "48 ± 3.2", "unit": "s"}, {"measurement": "A, pain threshold increasing percentage", "setting": "[2]; 15 min", "value": 138, "unit": "%"}, {"measurement": "B, average response time after medicine taken", "setting": "[2]; 15 min", "value": "50 ± 5.1", "unit": "s"}, {"measurement": "A, pain threshold increasing percentage", "setting": "[2]; 30 min", "value": 114, "unit": "%"}, {"measurement": "B, average response time after medicine taken", "setting": "[2]; 30 min", "value": "45 ± 3.7", "unit": "s"}, {"measurement": "A, pain threshold increasing percentage", "setting": "[2]; 45 min", "value": 100, "unit": "%"}, {"measurement": "B, average response time after medicine taken", "setting": "[2]; 45 min", "value": "42 ± 6.9", "unit": "s"}, {"measurement": "A, pain threshold increasing percentage", "setting": "[2]; 60 min", "value": 90, "unit": "%"}, {"measurement": "B, average response time after medicine taken", "setting": "[2]; 60 min", "value": "40 ± 3.5", "unit": "s"}]}]}
